Results taken from article PMC10786891, “Massively parallel profiling of RNA-targeting CRISPR-Cas13d”.
Substitutions are numbered along the chain they refer to. Names may count otherwise.

B1: target 1 MT (60-mer) (mixed)
RNA 1: CACCCGUGCAAAAAUGCAGGGGUCUAAAACUGAGCGGAUAACCUCUCUAUGG
RNA 2: CCACAUCUACGAAUUCGUACCAUAGAGAGGUUAUCCGCUCACCGAGAUCGGAAGAGCACA
B2: target 1 C7A (60-mer) (mixed)
RNA 1: B1 RNA 1
RNA 2: B1 RNA 2 with C35A
B3: target 1 G15A (60-mer) (mixed)
RNA 1: B1 RNA 1
RNA 2: B1 RNA 2 with G27A
B4: target 1 U10G (60-mer) (mixed)
RNA 1: B1 RNA 1
RNA 2: B1 RNA 2 with U32G
B5: target 1 3'-UAA (60-mer) (mixed)
RNA 1: B1 RNA 1
RNA 2: B1 RNA 2 with C42U, C43A, G44A
B6: target 1 C22A (60-mer) (mixed)
RNA 1: B1 RNA 1
RNA 2: B1 RNA 2 with C20A
B7: target 1 MT 5'PFS UAC 3'PFS AUG (mixed)
RNA 1: B1 RNA 1
RNA 2: GGGAAUGGAUCCACAUCUACGAAUUCUACCCAUAGAGAGGUUAUCCGCUCAAUGAGAUCGGAAGAGCACACGU
B8: target 1 MT 5'PFS GCC 3'PFS CGU (mixed)
RNA 1: B1 RNA 1
RNA 2: B7 RNA 2 with U27G, A28C, A52C, U53G, G54U
B9: target 1 A18G (60-mer) (mixed)
RNA 1: B1 RNA 1
RNA 2: B1 RNA 2 with A24G
B10: target 1 MT 5'PFS UAC 3'PFS AUU (mixed)
RNA 1: B1 RNA 1
RNA 2: B7 RNA 2 with G54U
B11: target 1 U3G,G15A (mixed)
RNA 1: B1 RNA 1
RNA 2: B7 RNA 2 with U27G, A28U, C29A, G37A, U49G, A52C, U53C
B12: target 1 MT 5'PFS GCC 3'PFS UGU (mixed)
RNA 1: B1 RNA 1
RNA 2: B7 RNA 2 with U27G, A28C, A52U, U53G, G54U
B13: target 1 MT 5'PFS GCC 3'PFS UGA (mixed)
RNA 1: B1 RNA 1
RNA 2: B7 RNA 2 with U27G, A28C, A52U, U53G, G54A
B14: target 1 5'-UAA (60-mer) (mixed)
RNA 1: B1 RNA 1
RNA 2: B1 RNA 2 with G17U, U18A
B15: target 1 MT 5'PFS CUG 3'PFS AUU (mixed)
RNA 1: B1 RNA 1
RNA 2: B7 RNA 2 with U27C, A28U, C29G, G54U
B16: target 1 MT 5'PFS AGG 3'PFS UCC (mixed)
RNA 1: B1 RNA 1
RNA 2: B7 RNA 2 with U27A, A28G, C29G, A52U, U53C, G54C
B17: target 1 MT 5'PFS GCU 3'PFS UAG (mixed)
RNA 1: B1 RNA 1
RNA 2: B7 RNA 2 with U27G, A28C, C29U, A52U, U53A
B18: target 1 G5U (60-mer) (mixed)
RNA 1: B1 RNA 1
RNA 2: B1 RNA 2 with G37U
B19: target 1 C4A (60-mer) (mixed)
RNA 1: B1 RNA 1
RNA 2: B1 RNA 2 with C38A
B20: target 1 3'-GGU (60-mer) (mixed)
RNA 1: B1 RNA 1
RNA 2: B1 RNA 2 with C42G, C43G, G44U
B21: target 1 3'-UGG (60-mer) (mixed)
RNA 1: B1 RNA 1
RNA 2: B1 RNA 2 with C42U, C43G
B22: target 1 MT 5'PFS CUG 3'PFS AUA (mixed)
RNA 1: B1 RNA 1
RNA 2: B7 RNA 2 with U27C, A28U, C29G, G54A
B23: target 1 A20C (60-mer) (mixed)
RNA 1: B1 RNA 1
RNA 2: B1 RNA 2 with A22C
B24: target 1 MT 5'PFS GCC 3'PFS UGC (mixed)
RNA 1: B1 RNA 1
RNA 2: B7 RNA 2 with U27G, A28C, A52U, U53G, G54C
B25: target 1 MT 5'PFS GCU 3'PFS UAA (mixed)
RNA 1: B1 RNA 1
RNA 2: B7 RNA 2 with U27G, A28C, C29U, A52U, U53A, G54A
B26: target 1 MT 5'PFS GGA 3'PFS AGA (mixed)
RNA 1: B1 RNA 1
RNA 2: B7 RNA 2 with U27G, A28G, C29A, U53G, G54A
B27: target 1 3'-GCU (60-mer) (mixed)
RNA 1: B1 RNA 1
RNA 2: B1 RNA 2 with C42G, G44U
B28: target 1 MT 5'PFS UUG 3'PFS UGU (mixed)
RNA 1: B1 RNA 1
RNA 2: B7 RNA 2 with A28U, C29G, A52U, U53G, G54U
B29: target 1 MT 5'PFS CUG 3'PFS AUG (mixed)
RNA 1: B1 RNA 1
RNA 2: B7 RNA 2 with U27C, A28U, C29G
B30: target 1 MT 5'PFS CCC 3'PFS UAA (mixed)
RNA 1: B1 RNA 1
RNA 2: B7 RNA 2 with U27C, A28C, A52U, U53A, G54A
B31: target 1 C2G (60-mer) (mixed)
RNA 1: B1 RNA 1
RNA 2: B1 RNA 2 with C40G
B32: target 1 3'-GUU (60-mer) (mixed)
RNA 1: B1 RNA 1
RNA 2: B1 RNA 2 with C42G, C43U, G44U
B33: target 1 MT 5'PFS AAG 3'PFS UAC (mixed)
RNA 1: B1 RNA 1
RNA 2: B7 RNA 2 with U27A, C29G, A52U, U53A, G54C
B34: crRNA-2 (MT) target (mixed)
RNA 1: CACCCGUGCAAAAUUGCAGGGGUCUAAAACCUUGAAGUUUUCCAAGUGCACU
RNA 2: UCCACAGCAAGUGCACUUGGAAAACUUCAAGAUGUGGUCA

Legend:
EsCas13d, nuclease-dead [1] = biological target: T1, EsCas13d, nuclease-dead (Eubacterium siraeum, UniProt B0MS50, R295A;H300A;R849A;H854A); assay: BLI; crRNA (strand 1, pre-loaded); Mg2+; 40 mM Tris-HCl pH 7.5, 150 mM NaCl, 6 mM MgCl2, 1 mM DTT, 0.1% Tween-20, 0.2 mg/ml BSA; temperature not stated; settings: tags: His6-TwinStrep-SUMO cleaved; label: 3' biotin on strand 2
T1 sequence: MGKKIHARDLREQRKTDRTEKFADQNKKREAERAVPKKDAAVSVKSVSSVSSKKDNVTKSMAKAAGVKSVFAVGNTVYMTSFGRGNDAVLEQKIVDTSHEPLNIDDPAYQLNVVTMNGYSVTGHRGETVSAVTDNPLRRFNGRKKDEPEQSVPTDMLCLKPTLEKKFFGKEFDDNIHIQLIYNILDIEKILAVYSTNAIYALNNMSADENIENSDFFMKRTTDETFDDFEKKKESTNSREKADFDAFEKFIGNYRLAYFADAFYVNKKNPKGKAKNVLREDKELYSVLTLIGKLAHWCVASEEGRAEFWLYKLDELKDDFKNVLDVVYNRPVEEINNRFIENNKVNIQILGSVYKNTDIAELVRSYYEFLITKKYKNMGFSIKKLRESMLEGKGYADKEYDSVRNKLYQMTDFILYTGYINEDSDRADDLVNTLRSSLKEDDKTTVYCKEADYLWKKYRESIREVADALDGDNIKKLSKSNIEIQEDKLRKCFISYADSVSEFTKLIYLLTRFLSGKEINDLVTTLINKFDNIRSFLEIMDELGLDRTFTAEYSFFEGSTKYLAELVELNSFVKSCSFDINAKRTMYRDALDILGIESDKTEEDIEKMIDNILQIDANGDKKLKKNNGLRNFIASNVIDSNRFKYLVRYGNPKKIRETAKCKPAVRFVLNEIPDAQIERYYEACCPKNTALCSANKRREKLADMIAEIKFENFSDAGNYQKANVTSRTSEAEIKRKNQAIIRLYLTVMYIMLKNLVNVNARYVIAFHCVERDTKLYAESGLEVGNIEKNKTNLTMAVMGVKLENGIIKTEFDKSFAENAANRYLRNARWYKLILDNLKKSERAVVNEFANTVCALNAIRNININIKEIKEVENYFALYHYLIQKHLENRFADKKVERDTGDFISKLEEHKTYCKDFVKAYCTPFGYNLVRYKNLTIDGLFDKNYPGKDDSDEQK

EsCas13d, nuclease-dead [2] = biological target: T1, EsCas13d, nuclease-dead; assay: as above; settings: tags: His6-TwinStrep-SUMO cleaved; label: 3' biotin on strand 2; remark: listed apart in the source
EsCas13d, nuclease-dead [3] = biological target: T1, EsCas13d, nuclease-dead; assay: crRNA (strand 1, pre-loaded); Mg2+; 40 mM Tris-HCl pH 7.5, 150 mM NaCl, 6 mM MgCl2, 1 mM DTT, 0.1% Tween-20, 0.2 mg/ml BSA; 25 C; 10 min per concentration, then washed; settings: tags: His6-TwinStrep-SUMO cleaved; N-terminal SNAP kept (SNAP-Surface 488); label: 3' end held by stalled T7 RNA polymerase

Row | Binder | koff (EsCas13d, nuclease-dead [1]) | kon (EsCas13d, nuclease-dead [1]) | Kd (EsCas13d, nuclease-dead [2]) | Kd (EsCas13d, nuclease-dead [3])
1 | B1 | 0.00052 s⁻¹ | 170000 M⁻¹ s⁻¹ |  | 
2 | B2 | 0.00045 s⁻¹ | 220000 M⁻¹ s⁻¹ | 2.1 nM | 
3 | B3 | 0.0006 s⁻¹ | 180000 M⁻¹ s⁻¹ | 3.4 nM | 
4 | B4 | 0.00051 s⁻¹ | 130000 M⁻¹ s⁻¹ | 3.8 nM | 
5 | B5 | 0.00061 s⁻¹ | 100000 M⁻¹ s⁻¹ | 6 nM | 
6 | B6 | 0.00066 s⁻¹ | 190000 M⁻¹ s⁻¹ | 3.6 nM | 
7 | B7 |  |  |  | 43 ± 20.5 nM
8 | B8 |  |  |  | 10.1 ± 1.65 nM
9 | B9 | 0.00063 s⁻¹ | 73000 M⁻¹ s⁻¹ | 8.7 nM | 
10 | B10 |  |  |  | 26.5 ± 8 nM
11 | B11 |  |  |  | 17.5 ± 1 nM
12 | B12 |  |  |  | 20 ± 5 nM
13 | B13 |  |  |  | 11.8 ± 2.3 nM
14 | B14 | 0.00061 s⁻¹ | 100000 M⁻¹ s⁻¹ | 6 nM | 
15 | B15 |  |  |  | 6.05 ± 1.6 nM
16 | B16 |  |  |  | 49 ± 19 nM
17 | B17 |  |  |  | ~95 nM

Row | Binder | koff (EsCas13d, nuclease-dead [1]) | kon (EsCas13d, nuclease-dead [1]) | Kd (EsCas13d, nuclease-dead [2]) | Kd (EsCas13d, nuclease-dead [3])
18 | B18 | 0.00042 s⁻¹ | 45000 M⁻¹ s⁻¹ | 9.3 nM | 
19 | B19 | 0.00035 s⁻¹ | 220000 M⁻¹ s⁻¹ | 1.6 nM | 
20 | B20 | 0.00084 s⁻¹ | 120000 M⁻¹ s⁻¹ | 7.1 nM | 
21 | B21 | 0.0006 s⁻¹ | 70000 M⁻¹ s⁻¹ | 8.6 nM | 
22 | B22 |  |  |  | 5.05 ± 1.4 nM
23 | B23 | 0.00063 s⁻¹ | 100000 M⁻¹ s⁻¹ | 6.3 nM | 
24 | B24 |  |  |  | 9 ± 1.35 nM
25 | B25 |  |  |  | 49.5 ± 11 nM
26 | B26 |  |  |  | 20.5 ± 2.75 nM
27 | B27 |  |  | 4.2 nM | 
28 | B28 |  |  |  | 51 ± 11.5 nM
29 | B29 |  |  |  | 33.5 ± 8 nM
30 | B30 |  |  |  | ~11 nM
31 | B31 | 0.0004 s⁻¹ | 200000 M⁻¹ s⁻¹ | 2 nM | 
32 | B32 | 0.0011 s⁻¹ | 250000 M⁻¹ s⁻¹ | 4.4 nM | 
33 | B33 |  |  |  | 24 ± 7 nM
34 | B34 |  |  | 3 nM | 
